Usually stoichiometry N stands for a count of units in the complex or per binding partner.

Data set [1] concerns the target T1, D-xylonate dehydratase from Caulobacter crescentus (CcXyDHT) (Caulobacter vibrioides, UniProt Q9A9Z2).
T1 construct: gene xylD; N-terminal Strep-tag II kept; expressed in E. coli; homotetramer; residues 1-591 (Asn3-His591 modelled); Lys130 carbamylated
The data set can be described thus: X-ray crystal structure, […] Å. It counts as binding. The note with it: holo form with Mg2+; Fe1 bound by Cys60 and Cys128, Fe2 by Cys200; active site.

In data set [2] the target is D-xylonate dehydratase from Caulobacter crescentus (Caulobacter crescentus). The data set can be described thus: crystal structure; holo-CcXyDHT at 2.7 Å, molecular replacement with 5J84, space group C2, a tetramer in the asymmetric unit; packing analysed with the PISA server.
Data set [3] deals with the molecule itself. Briefly: crystal structure; re-refinement with PHENIX of the deposited apo So6PGDHT model (PDB 2GP4, 2.5 Å).

T1 sequence (Q9A9Z2 6-595): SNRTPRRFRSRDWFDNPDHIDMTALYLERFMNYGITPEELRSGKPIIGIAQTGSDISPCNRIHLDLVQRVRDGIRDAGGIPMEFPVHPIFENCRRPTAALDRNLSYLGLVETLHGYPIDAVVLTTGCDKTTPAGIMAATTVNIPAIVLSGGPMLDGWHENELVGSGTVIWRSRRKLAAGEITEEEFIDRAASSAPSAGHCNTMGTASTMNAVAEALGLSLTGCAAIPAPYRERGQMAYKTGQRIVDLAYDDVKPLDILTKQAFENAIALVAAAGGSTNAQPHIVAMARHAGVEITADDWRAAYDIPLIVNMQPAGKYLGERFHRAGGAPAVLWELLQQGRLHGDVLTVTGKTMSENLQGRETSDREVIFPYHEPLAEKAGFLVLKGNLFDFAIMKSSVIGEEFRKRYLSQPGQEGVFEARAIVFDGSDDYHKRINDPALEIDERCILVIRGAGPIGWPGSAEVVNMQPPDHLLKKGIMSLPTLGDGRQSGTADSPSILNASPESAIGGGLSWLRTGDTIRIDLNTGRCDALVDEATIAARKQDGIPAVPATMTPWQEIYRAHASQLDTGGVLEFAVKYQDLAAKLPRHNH

For `[S]1[Fe][S][Fe]1` [[2Fe-2S] cluster], the “X-ray crystal structure, 2.7 Å” value in data set [1] is “The crystal structure of CcXyDHT suggests that the enzyme has a [2Fe-2S] cluster”.
In turn, “D-xylonate dehydratase from Caulobacter crescentus (enzyme)” yielded a stoichiometry N in data set [2] of 4.

B1: 6-phosphogluconate dehydratase from Shewanella oneidensis (enzyme)
chain: MHSVVQSVTDRIIARSKASREAYLAALNDARNHGVHRSSLSCGNLAHGFAACNPDDKNALRQLTKANIGIITAFNDMLSAHQPYETYPDLLKKACQEVGSVAQVAGGVPAMCDGVTQGQPGMELSLLSREVIAMATAVGLSHNMFDGALLLGICDKIVPGLLIGALSFGHLPMLFVPAGPMKSGIPNKEKARIRQQFAQGKVDRAQLLEAEAQSYHSAGTCTFYGTANSNQLMLEVMGLQLPGSSFVNPDDPLREALNKMAAKQVCRLTELGTQYSPIGEVVNEKSIVNGIVALLATGGSTNLTMHIVAAARAAGIIVNWDDFSELSDAVPLLARVYPNGHADINHFHAAGGMAFLIKELLDAGLLHEDVNTVAGYGLRRYTQEPKLLDGELRWVDGPTVSLDTEVLTSVATPFQNNGGLKLLKGNLGRAVIKVSAVQPQHRVVEAPAVVIDDQNKLDALFKSGALDRDCVVVVKGQGPKANGMPELHKLTPLLGSLQDKGFKVALMTDGRMSGASGKVPAAIHLTPEAIDGGLIAKVQDGDLIRVDALTGELSLLVSDTELATRTATEIDLRHSRYGMGRELFGVLRSNLSSPETGARSTSAIDELY
notes: 6-phosphogluconate dehydratase, Shewanella oneidensis, GenBank WP_011072452; apo form as in PDB 2GP4 (no [Fe-S] cluster, no Mg2+); The crystal data were deposited by others (PDB 2GP4, unpublished); also called So6PGDHT; SoPGDHT
B1: the “stoichiometry N” value in data set [3] stood at 2.

The values above are taken from paper PMC5770437, “The crystal structure of D-xylonate dehydratase reveals functional features of enzymes from the Ilv/ED dehydratase family” (Scientific Reports, 2018).
